Earlier results in PMC5321513.

Key:
14-3-3ζ (Homo sapiens) = 14-3-3ζ (Homo sapiens) (UniProt P63104)
14-3-3σ (Homo sapiens) = 14-3-3σ (Homo sapiens) (UniProt P31947)
Sequence of 14-3-3σ (Homo sapiens) (P31947 whole entry): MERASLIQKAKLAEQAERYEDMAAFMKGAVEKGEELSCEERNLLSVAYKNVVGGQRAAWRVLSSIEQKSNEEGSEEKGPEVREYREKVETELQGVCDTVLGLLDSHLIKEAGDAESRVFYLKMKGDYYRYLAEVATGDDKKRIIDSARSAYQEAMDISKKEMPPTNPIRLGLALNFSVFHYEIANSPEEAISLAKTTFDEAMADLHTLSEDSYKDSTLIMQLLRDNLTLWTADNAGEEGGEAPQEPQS

Sequence of 14-3-3ζ (Homo sapiens) (P63104 whole entry): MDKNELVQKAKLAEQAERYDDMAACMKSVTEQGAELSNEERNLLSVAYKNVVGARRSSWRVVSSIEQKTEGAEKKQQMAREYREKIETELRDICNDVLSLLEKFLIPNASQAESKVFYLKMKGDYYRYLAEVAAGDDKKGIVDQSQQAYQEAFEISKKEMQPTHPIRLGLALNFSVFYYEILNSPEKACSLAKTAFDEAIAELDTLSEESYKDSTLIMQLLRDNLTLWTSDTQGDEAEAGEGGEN

| Kd (14-3-3ζ (Homo sapiens)) [µM] | Kd (14-3-3σ (Homo sapiens)) [µM] | Substance |
| --- | --- | --- |
| 16.7 | – | C-RAF phosphopeptide (from UniProt P04049) |
| – | 16.3 | p53 phosphopeptide (from UniProt P04637) |
